Data published in patent US20230203185A1 (ECO ANIMAL HEALTH, published 2023).
Where a chain is given by its changes, count along the chain named.

Key:
pCD163-SRCR1-9-huFc [1] = molecular target: T1, pCD163-SRCR1-9-huFc (porcine, UniProt Q2VL90 47-1028, limits assumed); assay: SPR (Biacore 3000), antigen amine-coupled on CM5, VHH injected, pH 7.4
T1 construct: also called pCD163:SRCR1-9-Fc; pCD163SRCR1-9-Fc; not shown: human Fc (huFc)
T1 sequence: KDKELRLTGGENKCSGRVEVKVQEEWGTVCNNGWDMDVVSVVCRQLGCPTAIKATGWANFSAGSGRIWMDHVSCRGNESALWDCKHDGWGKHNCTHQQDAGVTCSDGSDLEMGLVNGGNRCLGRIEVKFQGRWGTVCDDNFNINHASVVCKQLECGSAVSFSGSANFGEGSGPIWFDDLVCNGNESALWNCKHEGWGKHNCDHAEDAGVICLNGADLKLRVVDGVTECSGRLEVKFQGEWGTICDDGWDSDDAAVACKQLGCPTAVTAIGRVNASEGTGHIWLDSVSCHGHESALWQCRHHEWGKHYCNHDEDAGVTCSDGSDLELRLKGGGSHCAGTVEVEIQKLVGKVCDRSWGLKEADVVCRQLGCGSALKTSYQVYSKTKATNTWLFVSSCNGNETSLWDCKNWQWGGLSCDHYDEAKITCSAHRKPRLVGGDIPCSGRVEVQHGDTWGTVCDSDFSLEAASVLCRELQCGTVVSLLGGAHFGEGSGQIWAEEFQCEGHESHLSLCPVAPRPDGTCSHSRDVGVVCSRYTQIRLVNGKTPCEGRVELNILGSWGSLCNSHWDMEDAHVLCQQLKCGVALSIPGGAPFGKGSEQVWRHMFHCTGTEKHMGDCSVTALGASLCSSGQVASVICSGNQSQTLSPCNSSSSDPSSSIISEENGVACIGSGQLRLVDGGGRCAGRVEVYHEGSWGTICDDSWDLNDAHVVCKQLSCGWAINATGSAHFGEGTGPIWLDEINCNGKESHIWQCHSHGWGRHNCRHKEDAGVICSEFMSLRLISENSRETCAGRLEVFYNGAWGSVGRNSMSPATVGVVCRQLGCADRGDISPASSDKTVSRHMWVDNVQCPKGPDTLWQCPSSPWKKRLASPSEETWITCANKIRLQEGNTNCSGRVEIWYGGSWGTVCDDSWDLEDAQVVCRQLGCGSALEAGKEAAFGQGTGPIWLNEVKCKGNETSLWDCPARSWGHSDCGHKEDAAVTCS
Protocol: (§1) To assess the affinity of selected purified clones to pCD163, pCD163-SRCR1-9-huFc or pCD163-SRCR4-7-huFc proteins were coated by amine coupling on a CM5 sensor ship (GE Healthcare). Surface plasmon resonance (SPR) (Biacore 3000, GE Healthcare) was used to determine the binding kinetics of selected single domain antibodies at pH7.4. Approximately 2000 RU of pCD163-SRCR1-9-huFc or pCD163-SRCR4-7-huFc, proteins at 20 or 30 µg/ml in Acetate buffer pH 5.0 or pH 5.5 were immobilized onto a CM5 chip using the standard amine coupling procedure.
(§2) 1x HBS-EP pH 7.4, were utilized as a running buffer during binding kinetic measurements. Purified VHH were injected at 3-fold dilution (300 nM; 100 nM; 33 nM; 11 nM; 3.7 nM; 1.2 nM; 0.4 nM; 0 nM), for 120 s, at a flow rate of 30 µl/min. RU levels were restored to base levels after regeneration with 10 µl of 10 mM NaOH / 1 M NaCl and 10 µl of 10 mM Glycine pH 1.5 between samples. Fitting 1:1 binding with mass transfer was applied to the set sample curves using the simultaneous fitting option of the BIAevaluation software to calculate the kinetic constants of the antibody-antigen interactions including association rate (ka), dissociation rate (kd) and affinity (KD). Curves were removed from the fitting after visual examination of the residuals and considering the value of Chi2: a minimum of 4 curves were considered for the simultaneous fitting.

pCD163-SRCR1-9-huFc [2] = molecular target: T1, pCD163-SRCR1-9-huFc; assay: SPR; lower end of the range, tied by Table 7 to VHH 012 on pCD163:SRCR1-9-Fc (1.03)
Protocol: as §1, §2

pCD163-SRCR1-9-huFc [3] = molecular target: T1, pCD163-SRCR1-9-huFc; assay: SPR; upper end of the range, tied by Table 7 to VHH 017 on pCD163:SRCR1-9-Fc (75.20)
Protocol: as §1, §2

B1: VHH 015 (2G01) (VHH)
VHH: QVQLVESGGGLVQAGDTLRLSCTASGRTFSSYSMGWFRQAPGKEREFVAAITWNGYITNYADSVKGRFTISRDNTKNTVFLQMNSLKPEETAVYYCAATTFSTTSPISRTYNYWGPGTQVTVSS
notes: Llama single domain antibody; also called 150(#15); VHCDR3 150(#15); not shown: tags: c-myc tag in periplasmic extract (ELISA, FACS); FLAG and His tags in purified VHH (SPR, infection assays)
Kd (pCD163-SRCR1-9-huFc [1]): 14.7 nM
koff (pCD163-SRCR1-9-huFc [1]): 0.00583 s⁻¹
kon (pCD163-SRCR1-9-huFc [1]): 396000 M⁻¹ s⁻¹

B2: VHH 018 (3E01) (VHH)
VHH: QVQLQESGGGLVQVGGSLRLSCVASGRAPSRYVMGWFRQAPGQEREFVAGIAWSGRAPYADSVKGRSTISRDNAKNTVYLQMNSLKPEDTGVYYCAGGEGAIRWTTLDAYDYWGQGTQVTVSS
notes: Llama single domain antibody; also called 49(#18); VHCDR3 49(#18); not shown: tags: c-myc tag in periplasmic extract (ELISA, FACS); FLAG and His tags in purified VHH (SPR, infection assays)
Kd (pCD163-SRCR1-9-huFc [1]): 16.5 nM
koff (pCD163-SRCR1-9-huFc [1]): 0.0134 s⁻¹
kon (pCD163-SRCR1-9-huFc [1]): 814000 M⁻¹ s⁻¹

B3: VHH 020 (3H11) (VHH)
VHH: B2 VHH with A28T, S67F, T68V, N73S, P87S, R103L, L107P, D108G, D111N
notes: Llama single domain antibody; also called 48(#20); VHCDR3 48(#20); not shown: tags: c-myc tag in periplasmic extract (ELISA, FACS); FLAG and His tags in purified VHH (SPR, infection assays)
Kd (pCD163-SRCR1-9-huFc [1]): 9.15 nM
koff (pCD163-SRCR1-9-huFc [1]): 0.00865 s⁻¹
kon (pCD163-SRCR1-9-huFc [1]): 945000 M⁻¹ s⁻¹

B4: VHH 019 (3E11) (VHH)
VHH: B2 VHH with G16S, A24T, A28T, G50A, A52S, S67F, R103K
notes: Llama single domain antibody; also called 47(#19); VHCDR3 47(#19); not shown: tags: c-myc tag in periplasmic extract (ELISA, FACS); FLAG and His tags in purified VHH (SPR, infection assays)
Kd (pCD163-SRCR1-9-huFc [1]): 8.77 nM
koff (pCD163-SRCR1-9-huFc [1]): 0.0102 s⁻¹
kon (pCD163-SRCR1-9-huFc [1]): 1.16e+06 M⁻¹ s⁻¹

B5: VHH 011 (2B06) (VHH)
VHH: EVQLVESGGGLVQAGGSLRLSCAASGRTLSVYGTGWFRQAPGKEREFVAGISGTTGSTLYADSVKGRFTISRDNAKNTVYLQMNSLKSEDTALYYCAAGGRVYITTSSWAYWGQGTQVTVSS
notes: Llama single domain antibody; also called 57(#11); VHCDR3 57(#11); not shown: tags: c-myc tag in periplasmic extract (ELISA, FACS); FLAG and His tags in purified VHH (SPR, infection assays)
Kd (pCD163-SRCR1-9-huFc [1]): 71.4 nM
koff (pCD163-SRCR1-9-huFc [1]): 0.01 s⁻¹
kon (pCD163-SRCR1-9-huFc [1]): 140000 M⁻¹ s⁻¹

B6: VHH 002 (1B04) (VHH)
VHH: QVQLVESGGGLVQAGGSLRLSCAASGLTFVTYSMGWFRQAPGKEREFVAAHRWSGSAYYAEHADSVEGRFTISRDYAKNMLYLQMNSLKHEDTAVYYCAAGVGSAAQYRYWGRGTQVTVSS
notes: Llama single domain antibody; also called 76(#2); VHCDR3 76(#2); not shown: tags: c-myc tag in periplasmic extract (ELISA, FACS); FLAG and His tags in purified VHH (SPR, infection assays)
Kd (pCD163-SRCR1-9-huFc [1]): 20 nM
koff (pCD163-SRCR1-9-huFc [1]): 0.0108 s⁻¹
kon (pCD163-SRCR1-9-huFc [1]): 539000 M⁻¹ s⁻¹

B7: VHH 016 (2H11) (VHH)
VHH: EVQLVESGGGLVQAGGSLRLSCAASGRTFAPGSMGWFRQAPGKEREFVAAHRWSGSAYYADYADSVEGRFTISRDYAKNMVYLQMNSLKPGDTAVYYCAAGVGSAAQYTYWGRGTQVTVSS
notes: Llama single domain antibody; also called 77(#16); VHCDR3 77(#16); not shown: tags: c-myc tag in periplasmic extract (ELISA, FACS); FLAG and His tags in purified VHH (SPR, infection assays)
Kd (pCD163-SRCR1-9-huFc [1]): 44.3 nM
koff (pCD163-SRCR1-9-huFc [1]): 0.00972 s⁻¹
kon (pCD163-SRCR1-9-huFc [1]): 219000 M⁻¹ s⁻¹

B8: VHH 012 (2C07) (VHH)
VHH: QLQLVESGGGLVQAGGSLRLSCVASGRTFSRYAMGWFRQAPGKEREFVAAIAWSTGSTYYANSVKGRFAISGDNAKNTVYLQMNSLKPEDTAVYYCAAETRYCSGFGCLDPRTYGSWGQGTQVTVSS
notes: Llama single domain antibody; also called 41(#12); VHCDR3 41(#12); not shown: tags: c-myc tag in periplasmic extract (ELISA, FACS); FLAG and His tags in purified VHH (SPR, infection assays)
Kd (pCD163-SRCR1-9-huFc [1]): 1.03 nM
koff (pCD163-SRCR1-9-huFc [1]): 0.00617 s⁻¹
kon (pCD163-SRCR1-9-huFc [1]): 5.97e+06 M⁻¹ s⁻¹
Kd (pCD163-SRCR1-9-huFc [2]): 1 to 75 nM

B9: VHH 023 (4E10) (VHH)
VHH: QVQLVESGGGLVQAGGSLRLSCVASSRTSSTYAMGWFRQGPGKERDFVAIISFGGTFYADSVKGRFTISRDNAKNTVYLQMNSLKPEDTAVYYCAAGRTLSKRADSYASWGQGTQVTVSS
notes: Llama single domain antibody; also called 70(#23); VHCDR3 70(#23); not shown: tags: c-myc tag in periplasmic extract (ELISA, FACS); FLAG and His tags in purified VHH (SPR, infection assays)
Kd (pCD163-SRCR1-9-huFc [1]): 3.1 nM
koff (pCD163-SRCR1-9-huFc [1]): 0.00927 s⁻¹
kon (pCD163-SRCR1-9-huFc [1]): 2.99e+06 M⁻¹ s⁻¹

B10: VHH 017 (3D03) (VHH)
VHH: QLQLVESGGGLVQPGGSLRLSCAASGFTLDDYTIGWFRQAPGKEREGVSCINSITSNTYYADSVKGRFTISRDNAKNTVYLQMNSLTAEDTAIYYCAADSGLFSGSSCLKYRAMRFGSWGQGTQVTVSS
notes: Llama single domain antibody; also called 29(#17); VHCDR3 29(#17); not shown: tags: c-myc tag in periplasmic extract (ELISA, FACS); FLAG and His tags in purified VHH (SPR, infection assays)
Kd (pCD163-SRCR1-9-huFc [1]): 75.2 nM
koff (pCD163-SRCR1-9-huFc [1]): 0.083 s⁻¹
kon (pCD163-SRCR1-9-huFc [1]): 1.1e+06 M⁻¹ s⁻¹
Kd (pCD163-SRCR1-9-huFc [3]): 1 to 75 nM

B11: VHH 001 (1B02) (VHH)
VHH: EVQLVESGGGLVQAGGSLSLSCAASGGTLAMYAMSWFRQAPGKDRKFVAAINTSGRYSRYADSVKGRFTISRDNAKNTATLQMNSLEPEDTAVYYCAATDKGNWALAMSYDYWGQGTQVTVSS
notes: Llama single domain antibody; also called 144(#1); VHCDR3 144(#1); not shown: tags: c-myc tag in periplasmic extract (ELISA, FACS); FLAG and His tags in purified VHH (SPR, infection assays)
Kd (pCD163-SRCR1-9-huFc [1]): 7.08 nM
koff (pCD163-SRCR1-9-huFc [1]): 0.0178 s⁻¹
kon (pCD163-SRCR1-9-huFc [1]): 2.52e+06 M⁻¹ s⁻¹
